Where a chain is given by its changes, count along the chain named.
Legend:
Test in all cases: cell-based or functional assay
[1] = biological target: hGLP-1R (Homo sapiens, UniProt P43220)
[2] = biological target: T1, human GIP receptor (human) (UniProt P48546)
T1 sequence (looked up): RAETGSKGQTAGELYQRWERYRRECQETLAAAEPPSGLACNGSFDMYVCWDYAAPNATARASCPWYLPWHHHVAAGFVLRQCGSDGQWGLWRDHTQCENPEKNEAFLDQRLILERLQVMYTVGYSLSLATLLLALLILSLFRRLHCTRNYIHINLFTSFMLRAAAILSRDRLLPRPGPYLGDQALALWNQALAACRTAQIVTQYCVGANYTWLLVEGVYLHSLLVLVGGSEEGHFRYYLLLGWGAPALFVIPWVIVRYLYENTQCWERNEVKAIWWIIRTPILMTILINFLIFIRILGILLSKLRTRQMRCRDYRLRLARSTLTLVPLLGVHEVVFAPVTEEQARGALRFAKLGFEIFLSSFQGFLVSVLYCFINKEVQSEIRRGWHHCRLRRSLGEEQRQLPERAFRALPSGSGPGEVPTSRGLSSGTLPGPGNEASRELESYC

[3] = biological target: human glucagon receptor (human) (UniProt P47871)
human glucagon receptor (human), sequence (P47871 26-477): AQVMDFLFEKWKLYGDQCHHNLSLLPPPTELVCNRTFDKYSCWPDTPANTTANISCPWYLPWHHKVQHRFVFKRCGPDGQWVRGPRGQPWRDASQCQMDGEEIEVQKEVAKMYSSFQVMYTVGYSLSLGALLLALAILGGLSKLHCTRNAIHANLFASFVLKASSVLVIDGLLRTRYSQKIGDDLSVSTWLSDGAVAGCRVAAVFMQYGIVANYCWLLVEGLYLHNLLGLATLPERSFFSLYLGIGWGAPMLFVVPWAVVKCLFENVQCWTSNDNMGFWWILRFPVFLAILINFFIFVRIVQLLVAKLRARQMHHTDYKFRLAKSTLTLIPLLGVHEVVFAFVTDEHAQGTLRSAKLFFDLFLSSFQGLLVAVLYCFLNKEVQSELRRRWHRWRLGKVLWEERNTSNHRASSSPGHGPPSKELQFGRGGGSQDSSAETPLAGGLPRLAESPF

hGLP-1R, sequence (P43220 24-463): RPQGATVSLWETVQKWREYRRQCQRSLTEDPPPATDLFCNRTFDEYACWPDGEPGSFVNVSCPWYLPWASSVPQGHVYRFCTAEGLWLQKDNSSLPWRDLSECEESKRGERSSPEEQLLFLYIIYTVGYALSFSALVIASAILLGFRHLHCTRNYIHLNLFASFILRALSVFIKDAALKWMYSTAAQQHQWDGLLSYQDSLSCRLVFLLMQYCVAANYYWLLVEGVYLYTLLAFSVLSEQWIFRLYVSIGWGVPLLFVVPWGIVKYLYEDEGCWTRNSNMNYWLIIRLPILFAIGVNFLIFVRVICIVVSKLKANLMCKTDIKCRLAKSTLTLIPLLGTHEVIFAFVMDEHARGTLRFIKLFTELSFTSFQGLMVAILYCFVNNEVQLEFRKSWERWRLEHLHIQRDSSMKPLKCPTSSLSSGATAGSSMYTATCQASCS

B1: Example 1013 (peptide)
chain: YXQGTFTSDXSXXLDXKAQXAFIEXLIEGGPSSGAPPPSGS
modifications: Aib, 4Pal, Orn, αMeL, Me4Pal, αMeY, (γGlu)2-C18 diacid, amide; synthetic construct; SITE 2: note = 2-Aminoisobutyric Acid; SITE 10: note = 3-(4-Pyridyl)-L-alanine; SITE 12: note = L-ornithine; SITE 13: note = alpha-methyl-leucine; SITE 16: note = L-ornithine; SITE 17: note = Lysine is chemically modified through conjugation of the epsilon-amino group of the Lys
B1 was tested. Which cAMP Rel EC50, nM (1% HSA) [1] did it give?
Its cAMP Rel EC50, nM (1% HSA) is 137 nM.

What about the cAMP Rel EC50, nM (1% HSA) [2] of the same binder?
Its cAMP Rel EC50, nM (1% HSA) is 22.6 nM.

What about the cAMP Rel EC50, nM (1% HSA) [3] of the same binder?
The cAMP Rel EC50, nM (1% HSA) was 285 nM.

B2: Example 1019 (peptide)
chain: B1 chain with X12Q, X25Y, G29A, A35E
modifications: not fully specified; non-natural residues, (γGlu)2-C18 diacid lysine acylation, C-terminal amide; synthetic construct; SITE 2: note = 2-Aminoisobutyric Acid; SITE 10: note = 3-(4-Pyridyl)-L-alanine; SITE 13: note = alpha-methyl-leucine; SITE 16: note = L-ornithine; SITE 17: note = Lysine is chemically modified through conjugation of the epsilon-amino group of the Lysine side chain with (gamma-Gl)
Which results are given for B2?
Relative cAMP EC50 [1]: 1.33 nM; cAMP Rel EC50, nM (1% HSA) [1]: 161 nM; Relative cAMP EC50 [2]: 0.169 nM; cAMP Rel EC50, nM (1% HSA) [2]: 21.3 nM; Relative cAMP EC50 [3]: 4.36 nM; cAMP Rel EC50, nM (1% HSA) [3]: 579 nM

B3: Example 1017 (peptide)
chain: B1 chain with X12Q, X25Y, G29A
modifications: not fully specified; Aib, 4Pal, αMeL, Orn, Me4Pal, D-Ala; acylated Lys; amide; synthetic construct; SITE 2: note = 2-Aminoisobutyric Acid; SITE 10: note = 3-(4-Pyridyl)-L-alanine; SITE 13: note = alpha-methyl-leucine; SITE 16: note = L-ornithine; SITE 17: note = Lysine is chemically modified through conjugation of the epsilon-amino group of the Lysine side chain with (gamma-Gl)
B3 was tested. Which cAMP Rel EC50, nM (1% HSA) [1] did it give?
The cAMP Rel EC50, nM (1% HSA) was 118 nM.

And the cAMP Rel EC50, nM (1% HSA) [2]?
Its cAMP Rel EC50, nM (1% HSA) is 28.3 nM.

And the cAMP Rel EC50, nM (1% HSA) [3]?
The cAMP Rel EC50, nM (1% HSA) was 649 nM.

B4: Example 1016 (peptide)
chain: B1 chain with X12Q, X25Y, G29A
modifications: not fully specified; Aib, 4Pal, αMeL, Orn, Me4Pal, D-Ala; acylated Lys; C-terminal amide; synthetic construct; SITE 2: note = 2-Aminoisobutyric Acid; SITE 10: note = 3-(4-Pyridyl)-L-alanine; SITE 13: note = alpha-methyl-leucine; SITE 16: note = L-ornithine; SITE 17: note = Lysine is chemically modified through conjugation of the epsilon-amino group of the Lysine side chain with (2-[2-(2-
What does the source list for B4?
cAMP Rel EC50, nM (1% HSA) [1]: 156 nM; cAMP Rel EC50, nM (1% HSA) [2]: 30.6 nM; cAMP Rel EC50, nM (1% HSA) [3]: 626 nM

B5: Example 1014 (peptide)
chain: B1 chain with X16K, E28A, A35E
modifications: Aib, 4Pal, Orn, αMeL, Me4Pal, αMeY; γGlu2-C18 diacid Lys; amide; synthetic construct; SITE 2: note = 2-Aminoisobutyric Acid; SITE 10: note = 3-(4-Pyridyl)-L-alanine; SITE 12: note = L-ornithine; SITE 13: note = alpha-methyl-leucine; SITE 17: note = Lysine is chemically modified through conjugation of the epsilon-amino group of the Lysine side chain with (gamma-Gl)
Which results are given for B5?
Relative cAMP EC50 [1]: 0.718 nM; cAMP Rel EC50, nM (1% HSA) [1]: 86.4 nM; Relative cAMP EC50 [2]: 0.0412 nM; cAMP Rel EC50, nM (1% HSA) [2]: 5.62 nM; Relative cAMP EC50 [3]: 3.62 nM; cAMP Rel EC50, nM (1% HSA) [3]: 277 nM

B6: Example 1015 (peptide)
chain: B1 chain with X16K, E28A, S39E
modifications: non-natural residues (Aib, 4Pal, Orn, Me4Pal, αMeY); lipidated K; amide; synthetic construct; SITE 2: note = 2-Aminoisobutyric Acid; SITE 10: note = 3-(4-Pyridyl)-L-alanine; SITE 12: note = L-ornithine; SITE 13: note = alpha-methyl-leucine; SITE 17: note = Lysine is chemically modified through conjugation of the epsilon-amino group of the Lysine side chain with (gamma-Gl)
With B6 as the binder, how does the cAMP Rel EC50, nM (1% HSA) [1] read?
Its cAMP Rel EC50, nM (1% HSA) is 92.4 nM.

And the cAMP Rel EC50, nM (1% HSA) [2]?
Its cAMP Rel EC50, nM (1% HSA) is 9.08 nM.

And the cAMP Rel EC50, nM (1% HSA) [3]?
The cAMP Rel EC50, nM (1% HSA) was 357 nM.

B7: Example 6 (peptide)
chain: YXQGTFTSDFSKXLDKKAQXAFIEYLLAGGPSSGEPPPSGG
modifications: Aib, αMeL; Lys acylated; C-terminal amide; synthetic construct; SITE 2: note = 2-Aminoisobutyric Acid; SITE 13: note = alpha-methyl-leucine; SITE 17: note = Lysine is chemically modified through conjugation of the epsilon-amino group of the Lysine side chain with (2-[2-(2-Amino-ethoxy)-ethoxy]-acetyl)-(gamma-Glu)-CO-(CH2) 18-CO2H; SITE 20: n
B7 was tested. Which Relative cAMP EC50 [1] did it give?
The Relative cAMP EC50 was 1.95 nM.

And the cAMP Rel EC50 (in the presence of 1% HSA) [1]?
Its cAMP Rel EC50 (in the presence of 1% HSA) is 446 nM.

And the Relative cAMP EC50 [2]?
Its Relative cAMP EC50 is 0.232 nM.

What about the cAMP Rel EC50 (in the presence of 1% HSA) [2] of the same binder?
The cAMP Rel EC50 (in the presence of 1% HSA) was 46.6 nM.

And the Relative cAMP EC50 [3]?
Its Relative cAMP EC50 is 6.89 nM.

And the cAMP Rel EC50 (in the presence of 1% HSA) [3]?
Its cAMP Rel EC50 (in the presence of 1% HSA) is 1380 nM.

B8: Example 1027 (peptide)
chain: YXQGTFTSDXSQXLDXKAQXAFIEXLIEGGPSSGEPPPSGSEE
modifications: Aib, 4Pal, αMeL, Orn, Me4Pal, αMeY; lipidated Lys; C-terminal amide; synthetic construct; SITE 2: note = 2-Aminoisobutyric Acid; SITE 10: note = 3-(4-Pyridyl)-L-alanine; SITE 13: note = alpha-methyl-leucine; SITE 16: note = L-ornithine; SITE 17: note = Lysine is chemically modified through conjugation of the epsilon-amino group of the Lysine side chain with (gamma-Gl)
Which results are given for B8?
Relative cAMP EC50 [1]: 1.23 nM; cAMP Rel EC50, nM (1% HSA) [1]: 252 nM; Relative cAMP EC50 [2]: 0.208 nM; cAMP Rel EC50, nM (1% HSA) [2]: 58.1 nM; Relative cAMP EC50 [3]: 4.99 nM; cAMP Rel EC50, nM (1% HSA) [3]: 1470 nM

B9: Example 1036 (peptide)
chain: B8 chain with X16K, X25Y, I27L, E28A, E35A
modifications: synthetic construct; SITE 2: note = 2-Aminoisobutyric Acid; SITE 10: note = 3-(4-Pyridyl)-L-alanine; SITE 13: note = alpha-methyl-leucine; SITE 17: note = Lysine is chemically modified through conjugation of the epsilon-amino group of the Lysine side chain with (gamma-Glu)2-CO-(CH2)16-CO2H; SITE 20:
For B9, which Relative cAMP EC50 [1] is on record?
Its Relative cAMP EC50 is 6.87 nM.

What about the cAMP Rel EC50, nM (1% HSA) [1] of the same binder?
Its cAMP Rel EC50, nM (1% HSA) is 1080 nM.

What about the Relative cAMP EC50 [2] of the same binder?
Its Relative cAMP EC50 is 0.114 nM.

What about the cAMP Rel EC50, nM (1% HSA) [2] of the same binder?
The cAMP Rel EC50, nM (1% HSA) was 13 nM.

And the Relative cAMP EC50 [3]?
The Relative cAMP EC50 was 2.05 nM.

And the cAMP Rel EC50, nM (1% HSA) [3]?
The cAMP Rel EC50, nM (1% HSA) was 353 nM.

B10: Example 1031 (peptide)
chain: B8 chain with X25Y, E28A, E35A
modifications: non-natural residues; C18 diacid-(γ-Glu)2 acyl on Lys; C-terminal amide; synthetic construct; SITE 2: note = 2-Aminoisobutyric Acid; SITE 10: note = 3-(4-Pyridyl)-L-alanine; SITE 13: note = alpha-methyl-leucine; SITE 16: note = L-ornithine; SITE 17: note = Lysine is chemically modified through conjugation of the epsilon-amino group of the Lysine side chain with (gamma-Gl)
Which results are given for B10?
cAMP Rel EC50, nM (1% HSA) [1]: 152 nM; cAMP Rel EC50, nM (1% HSA) [2]: 17.3 nM; cAMP Rel EC50, nM (1% HSA) [3]: 1200 nM

B11: Example 1029 (peptide)
chain: B8 chain with X16K, X25Y, E28A, E35A
modifications: non-natural residues; AEEA-γGlu-C18 diacid on Lys; amide; synthetic construct; SITE 2: note = 2-Aminoisobutyric Acid; SITE 10: note = 3-(4-Pyridyl)-L-alanine; SITE 13: note = alpha-methyl-leucine; SITE 17: note = Lysine is chemically modified through conjugation of the epsilon-amino group of the Lysine side chain with (2-[2-(2-Amino-ethoxy)-ethoxy]-acetyl)
B11 was tested. Which cAMP Rel EC50, nM (1% HSA) [1] did it give?
The cAMP Rel EC50, nM (1% HSA) was 170 nM.

And the cAMP Rel EC50, nM (1% HSA) [2]?
Its cAMP Rel EC50, nM (1% HSA) is 22.3 nM.

What about the cAMP Rel EC50, nM (1% HSA) [3] of the same binder?
The cAMP Rel EC50, nM (1% HSA) was 511 nM.

B12: Example 1033 (peptide)
chain: B8 chain with X25Y, E28A, E35A
modifications: Aib, 4Pal, Me4Pal, Orn, alpha-methyl-Leu, lipidated Lys, amide; synthetic construct; SITE 2: note = 2-Aminoisobutyric Acid; SITE 10: note = 3-(4-Pyridyl)-L-alanine; SITE 13: note = alpha-methyl-leucine; SITE 16: note = L-ornithine; SITE 17: note = Lysine is chemically modified through conjugation of the epsilon-amino group of the Lysine side chain with (Glu)2-(g)
Which cAMP Rel EC50, nM (1% HSA) [1] does the source give for B12 here?
Its cAMP Rel EC50, nM (1% HSA) is 221 nM.

What about the cAMP Rel EC50, nM (1% HSA) [2] of the same binder?
The cAMP Rel EC50, nM (1% HSA) was 23.4 nM.

And the cAMP Rel EC50, nM (1% HSA) [3]?
The cAMP Rel EC50, nM (1% HSA) was 2170 nM.

B13: Example 1030 (peptide)
chain: B8 chain with X16K, X25Y, E28A, E35A
modifications: synthetic construct; SITE 2: note = 2-Aminoisobutyric Acid; SITE 10: note = 3-(4-Pyridyl)-L-alanine; SITE 13: note = alpha-methyl-leucine; SITE 17: note = Lysine is chemically modified through conjugation of the epsilon-amino group of the Lysine side chain with (Glu)-(gamma-Glu)-CO-(CH2)16-CO2H; SIT
B13 was tested. Which Relative cAMP EC50 [1] did it give?
Its Relative cAMP EC50 is 1.72 nM.

What about the cAMP Rel EC50, nM (1% HSA) [1] of the same binder?
Its cAMP Rel EC50, nM (1% HSA) is 385 nM.

And the Relative cAMP EC50 [2]?
The Relative cAMP EC50 was 0.122 nM.

What about the cAMP Rel EC50, nM (1% HSA) [2] of the same binder?
The cAMP Rel EC50, nM (1% HSA) was 21 nM.

What about the Relative cAMP EC50 [3] of the same binder?
Its Relative cAMP EC50 is 9.42 nM.

What about the cAMP Rel EC50, nM (1% HSA) [3] of the same binder?
Its cAMP Rel EC50, nM (1% HSA) is 1830 nM.

— patent US20240270821A1, “GIP/GLP1/GCG TRI-RECEPTOR AGONISTS AND USES THEREOF” (priority 2023, published 2024)
